Measurements published in publication PMC4304843, “Human Mitochondrial Hsp70 (Mortalin): Shedding Light on ATPase Activity, Interaction with Adenosine Nucleotides, Solution Structure and Domain Organization” (PLoS ONE, 2015).

Columns and labels:
[1] = biological target: Human mitochondrial Hsp70 (mortalin), recombinant (human) (UniProt P38646)
[2] = biological target: Human Hsp70-1A, recombinant (human) (UniProt P0DMV8)
Chain of Human Hsp70-1A, recombinant (human) (P0DMV8 whole entry): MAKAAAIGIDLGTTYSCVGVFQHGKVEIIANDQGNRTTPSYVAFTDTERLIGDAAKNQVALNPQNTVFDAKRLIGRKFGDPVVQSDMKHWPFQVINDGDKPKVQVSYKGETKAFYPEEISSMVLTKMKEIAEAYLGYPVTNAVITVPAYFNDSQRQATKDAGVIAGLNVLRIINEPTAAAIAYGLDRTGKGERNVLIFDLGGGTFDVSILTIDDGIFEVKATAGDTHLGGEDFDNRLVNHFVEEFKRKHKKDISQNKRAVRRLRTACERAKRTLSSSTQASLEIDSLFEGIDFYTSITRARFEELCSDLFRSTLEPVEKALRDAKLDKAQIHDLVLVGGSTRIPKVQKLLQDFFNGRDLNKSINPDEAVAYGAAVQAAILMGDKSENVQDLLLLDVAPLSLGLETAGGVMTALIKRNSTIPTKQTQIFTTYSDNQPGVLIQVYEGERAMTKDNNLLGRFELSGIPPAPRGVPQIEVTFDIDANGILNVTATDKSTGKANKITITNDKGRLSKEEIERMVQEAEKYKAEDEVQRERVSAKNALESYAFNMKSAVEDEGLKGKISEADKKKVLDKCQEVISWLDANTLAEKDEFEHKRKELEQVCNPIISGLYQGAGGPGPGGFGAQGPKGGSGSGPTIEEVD

Chain of Human mitochondrial Hsp70 (mortalin), recombinant (human) (P38646 47-679): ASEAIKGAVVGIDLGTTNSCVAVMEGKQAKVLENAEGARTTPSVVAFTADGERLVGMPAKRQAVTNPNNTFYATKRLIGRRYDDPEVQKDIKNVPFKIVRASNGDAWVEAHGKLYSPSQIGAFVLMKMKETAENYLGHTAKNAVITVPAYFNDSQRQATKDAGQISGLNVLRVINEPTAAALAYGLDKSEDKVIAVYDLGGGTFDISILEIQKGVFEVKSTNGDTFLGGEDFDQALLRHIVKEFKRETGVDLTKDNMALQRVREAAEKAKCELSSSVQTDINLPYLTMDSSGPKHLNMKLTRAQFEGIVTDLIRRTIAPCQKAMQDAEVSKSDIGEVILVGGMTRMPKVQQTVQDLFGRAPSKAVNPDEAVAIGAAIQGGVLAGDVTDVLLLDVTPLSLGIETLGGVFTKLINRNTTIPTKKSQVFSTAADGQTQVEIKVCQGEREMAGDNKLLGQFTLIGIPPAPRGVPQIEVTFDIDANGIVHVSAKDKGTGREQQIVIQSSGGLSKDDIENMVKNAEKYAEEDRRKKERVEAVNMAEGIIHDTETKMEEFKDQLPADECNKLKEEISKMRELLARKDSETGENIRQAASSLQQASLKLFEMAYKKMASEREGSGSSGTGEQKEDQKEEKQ

EC50 of the stimulation of the basal ATPase activity of Hsp70-1A by NR peptide titration (1 mmol/L ATP, 37°C) [2]: 170 µM
relative stimulation of the basal ATPase activity of Hsp70-1A at increasing NR peptide concentrations; maximum reached at 500 μmol/L NR peptide [2]: 15%
Binder: NRLLLTGY [NR peptide (NRLLLTGY)]
EC50 of the stimulation of the basal ATPase activity of mortalin by NR peptide titration (1 mmol/L ATP, 37°C) [1]: 7 µM
relative stimulation of the basal ATPase activity of mortalin at increasing NR peptide concentrations; maximum reached at 100 μmol/L NR peptide [1]: 25%
